Target: DCR-1•DRH-1 complex (DCR-1•(OSF)DRH-1) (C. elegans) (UniProt P34529)
Assay: pull-down

- percent recovery normalized to WT RDE-4: 8%
Substance: RDE-4 truncation R1R2 (dsRBM1 and dsRBM2, ends with D243) (from UniProt G5EBF5 1-243) (domain or fragment)
